Reference: the RNAGym collection of RNA variant scans (doi:10.1021/acssynbio.7b00057)

B1: Pistol ribozyme (parent)
chain: GGGUCGUUGUUCCAUAAUCGCGUGGAUAUGGCACGCAAGUUUCUACCGGGCACCGUAAAUGUCCGACUGGAGCCGUUCGGGCGGCUAUAAACAGACCUCAGGCCCGAAGCGUGGCGGCACCUGCCGCCGGUGGUAAAAAAGAUCGGAAGAGCACACGUCU

Variants of: B1
Experiment: aptazyme ON/OFF ratio, guanine; higher = stronger switching; co-transcriptional cleavage with and without guanine

Row | Variant | aptazyme ON/OFF ratio
1 | U7A U10A U11C C12U C13G | 1.07
2 | U7A U10A U11C C12U C13A | 1.07
3 | U7A U10A U11C C12U C13U | 1.04
4 | U7A U10C U11C C12G | 1.14
5 | U7A U10C U11C C12A | 1.1
6 | U7A U10C U11C C12U | 1.04
7 | U7A U10A U11A C12G C13G | 1.46
8 | U7A U10A U11A C12G C13A | 1.07
9 | U7A U10A U11A C12G C13U | 1.25
10 | U7A U10A U11G C13U | 1.19
11 | U7A U10A U11G C13A | 1.31
12 | U7A U10A U11G C13G | 1.3
13 | U7A U10G U11A C12U C13U | 1.07
14 | U7A U10G U11A C12U C13A | 1.29
15 | U7A U10G U11A C12U C13G | 1.13
16 | U7A U10G U11A C12G C13G | 1.17
17 | U7A U10G U11A C12G C13U | 1.28
18 | U7A U10G U11A C12G C13A | 1.08
19 | U7A U10A U11G C12A C13G | 1.39
20 | U7A U10A U11G C12A C13A | 1.17
21 | U7A U10A U11G C12A C13U | 1.17
22 | U7A U10G C12G | 1.36
23 | U7A U10G C12U | 1.29
24 | U7A U10G C12A | 1.16

Row | Variant | aptazyme ON/OFF ratio
25 | U7A U10G C12U C13U | 1.36
26 | U7A U10G C12U C13A | 1.41
27 | U7A U10G C12U C13G | 1.12
28 | U7A U10A U11C | 1
29 | U7A U10A U11A | 1.21
30 | U7A U10A U11G | 1.35
31 | U7A U10C U11A C12A C13A | 1.21
32 | U7A U10C U11A C12A C13U | 1.11
33 | U7A U10C U11A C12A C13G | 1.23
34 | U7A U10C U11C C12U C13G | 1.08
35 | U7A U10C U11C C12U C13U | 1.07
36 | U7A U10C U11C C12U C13A | 1.03
37 | U7A U10C U11C C12G C13U | 1.06
38 | U7A U10C U11C C12G C13G | 1.09
39 | U7A U10C U11C C12G C13A | 1.04
40 | U7A U10C U11G C13U | 1.17
41 | U7A U10C U11G C13A | 1.24
42 | U7A U10C U11G C13G | 1.2
43 | U7A U10A C12U C13G | 1.14
44 | U7A U10A C12U C13U | 1.27
45 | U7A U10G U11A C12U | 1.13
46 | U7A U10G U11A C12G | 1.24
47 | U7A U10G U11A C12A | 1.36
48 | U7A U10G U11C C12A C13G | 1.12

Row | Variant | aptazyme ON/OFF ratio
49 | U7A U10G U11C C12A C13A | 1.33
50 | U7A U10G U11C C12A C13U | 1.2
51 | U7A U10A U11C C12G C13G | 1.17
52 | U7A U10A U11C C12G C13A | 1.08
53 | U7A U10A U11C C12G C13U | 1.1
54 | U7A U10C U11A C12G C13A | 1.22
55 | U7A U10C U11A C12G C13G | 1.26
56 | U7A U10C U11A C12G C13U | 1.29
57 | U7A U10C U11G C12G C13U | 1.18
58 | U7A U10C U11G C12G C13G | 1.31
59 | U7A U10C U11G C12G C13A | 1.24
60 | U7A U10C U11C C12A C13U | 1.1
61 | U7A U10C U11C C12A C13G | 1.16
62 | U7A U10C U11C C12A C13A | 1.06
63 | U7A U10G U11G C12A | 1.29
64 | U7A U10A U11A C13U | 1.16
65 | U7A U10A U11A C13A | 1.19
66 | U7A U10A U11A C13G | 1.15
67 | U7A U10C U11G C12U C13G | 1.31
68 | U7A U10C U11G C12U C13A | 1.27
69 | U7A U10C U11G C12U C13U | 1.2
70 | U7A U10C U11G C12A C13G | 1.23
71 | U7A U10C U11G C12A C13U | 1.26
72 | U7A U10C U11G C12A C13A | 1.28

Row | Variant | aptazyme ON/OFF ratio
73 | U7A U10C C12A C13U | 1.21
74 | U7A U10C C12A C13A | 1.35
75 | U7A U10C C12A C13G | 1.12
76 | U7A U10C C12U | 3.22
77 | U7A U10C C12A | 1.37
78 | U7A U10C C12G | 1.42
79 | U7A U10G U11C C12A | 1.76
80 | U7A U10G U11C C12U | 1.09
81 | U7A U10G U11C C12G | 1.64
82 | U7A U10C | 4.51
83 | U7A U10G | 1.56
84 | U7A U10G U11A C13G | 1.09
85 | U7A U10G U11A C13A | 1.11
86 | U7A U10G U11A C13U | 1.06
87 | U7A U10G C13U | 1.27
88 | U7A U10G C13G | 1.23
89 | U7A U10G C13A | 1.31
90 | U7A U10G U11A C12A C13G | 1.11
91 | U7A U10G U11A C12A C13A | 1.17
92 | U7A U10G U11A C12A C13U | 1.08
93 | U7A U10A U11G C12A | 1.13
94 | U7A U10A U11G C12U | 1.15
95 | U7A U10A U11G C12G | 1.45
96 | U7A U10A U11A C12U C13G | 1.26

Row | Variant | aptazyme ON/OFF ratio
97 | U7A U10A U11A C12U C13A | 1.15
98 | U7A U10A U11A C12U C13U | 1.22
99 | U7A U10A U11G C12G C13U | 1.16
100 | U7A U10A U11G C12G C13G | 1.11
101 | U7A U10A U11G C12G C13A | 1.06
102 | U7A U10C U11A C13U | 1.16
103 | U7A U10C U11A C13G | 1.09
104 | U7A U10C U11A C13A | 1.15
105 | U7A U10C U11G | 1.25
106 | U7A U10C U11A | 1.2
107 | U7A U10C U11C | 1.03
108 | U7A U10G C12G C13U | 1.2
109 | U7A U10G C12G C13G | 1.08
110 | U7A U10G C12G C13A | 1.08
111 | U7A U10C U11A C12U C13A | 1.17
112 | U7A U10C U11A C12U C13G | 1.14
113 | U7A U10C U11A C12U C13U | 1.26
114 | U7A U10G C12A C13A | 1.16
115 | U7A U10G C12A C13G | 1.09
116 | U7A U10G C12A C13U | 1.2
117 | U7A U10A U11C C12A | 1.08
118 | U7A U10A U11C C12G | 1.1
119 | U7A U10A U11C C12U | 1.03
120 | U7A U10A U11C C12A C13U | 1.11

Row | Variant | aptazyme ON/OFF ratio
121 | U7A U10A U11C C12A C13A | 1.1
122 | U7A U10A U11C C12A C13G | 1.03
123 | U7A U10G U11C C13U | 1.05
124 | U7A U10G U11C C13A | 1.07
125 | U7A U10G U11C C13G | 1.08
126 | U7A U10A U11C C13G | 1.03
127 | U7A U10A U11C C13U | 1
128 | U7A U10A U11C C13A | 1.02
129 | U7A U10C U11G C12U | 1.24
130 | U7A U10C U11G C12A | 1.08
131 | U7A U10C U11G C12G | 1.26
132 | U7A U10A U11G C12U C13U | 1.35
133 | U7A U10A U11G C12U C13A | 1.11
134 | U7A U10A U11G C12U C13G | 1.45
135 | U7A U10C C13A | 1.06
136 | U7A U10C C13G | 1.08
137 | U7A U10C C13U | 1.13
138 | U7A U10C C12G C13A | 1.29
139 | U7A U10C C12G C13G | 1.35
140 | U7A U10C C12G C13U | 1.28
141 | U7A U10G U11C | 1.04
142 | U7A U10G U11A | 1.06
143 | U7A U10G U11G | 1.27
144 | U7A U10C U11A C12A | 1.23

Row | Variant | aptazyme ON/OFF ratio
145 | U7A U10C U11A C12G | 1.26
146 | U7A U10C U11A C12U | 1.3
147 | U7A U10A U11A C12G | 1.18
148 | U7A U10A U11A C12U | 1.2
149 | U7A U10A U11A C12A | 1.11
150 | U7A U10G U11C C12G C13G | 1.11
151 | U7A U10G U11C C12G C13U | 1.34
152 | U7A U10G U11C C12G C13A | 1.13
153 | U7A U10C C12U C13G | 1.09
154 | U7A U10C C12U C13U | 1.33
155 | U7A U10C C12U C13A | 1.16
156 | U7A U10G U11C C12U C13G | 1.41
157 | U7A U10G U11C C12U C13A | 1.3
158 | U7A U10G U11C C12U C13U | 1.21
159 | U7A U10A C13U | 1.07
160 | U7A U10A C13G | 1.05
161 | U7A U10A C13A | 1.07
162 | U7A U10C U11C C13U | 1.03
163 | U7A U10C U11C C13G | 1.07
164 | U7A U10C U11C C13A | 1.03
165 | U7A U10A U11A C12A C13G | 1.14
166 | U7A U10A U11A C12A C13A | 1.23
167 | U7A U10A U11A C12A C13U | 1.21
